In the experiment the target is T1, 人TIGIT (TIGIT-Jurkat细胞表面) (human, UniProt Q495A1 22-244).
T1 construct: whole, on cells
T1 sequence (looked up): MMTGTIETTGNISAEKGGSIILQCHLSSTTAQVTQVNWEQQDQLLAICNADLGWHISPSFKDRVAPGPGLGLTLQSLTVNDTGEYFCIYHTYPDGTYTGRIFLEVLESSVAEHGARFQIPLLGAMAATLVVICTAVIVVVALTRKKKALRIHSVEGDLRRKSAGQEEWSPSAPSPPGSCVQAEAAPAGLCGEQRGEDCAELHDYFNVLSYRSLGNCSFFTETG
Description: flow cytometry competition: blocking of PVR-Fc-bio (12.5 nM) binding to TIGIT-Jurkat cells. On the technique in general: In flow cytometry, cells or beads pass a laser one at a time.

B1: 参照抗体Tiragolumab (antibody, V domains shown)
VH: EVQLQQSGPGLVKPSQTLSLTCAISGDSVSSNSAAWNWIRQSPSRGLEWLGKTYYRFKWYSDYAVSVKGRITINPDTSKNQFSLQLNSVTPEDTAVFYCTRESTTYDLLAGPFDYWGQGTLVTVSS
VL: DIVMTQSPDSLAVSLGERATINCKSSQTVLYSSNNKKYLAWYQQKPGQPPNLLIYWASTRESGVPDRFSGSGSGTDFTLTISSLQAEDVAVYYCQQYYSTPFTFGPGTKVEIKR
Usually IC50 stands for the concentration at which inhibition is half-maximal. The molecule B1 returned an IC50 of 2.82 nM.

B2: 抗体h10D8OF (antibody, human IgG1, kappa, V domains shown)
VH: QVQLVESGGGVVQPGRSLRLDCKASGFTFSSYGMSWVRQAPGKGLELVATINSNGGSTYYPDSVKGRFTISRDNSKNTLFLQMNSLRAEDTAVYYCARLGTGTLGFAYWGQGTLVTVSS
VL: EIVMTQSPATLSLSPGERATLSCKASQDVKTAVSWYQQKPGQAPRLLIYWASTRATGIPARFSGSGSGTDYTLTISSLEPEDFAVYYCQQHYSTPWTFGQGTKVEIKR
notes: also called 抗TIGIT抗体
With B2, the half-inhibitory concentration (IC50) is 0.441 nM.

B3: 抗体h10D8OFKF (antibody, human IgG1, kappa, V domains shown)
VH: B2 VH
VL: B2 VL
notes: also called 抗TIGIT抗体
B3 returned an IC50 of 0.742 nM.
